Data on 167 variants can be found in the RNAGym collection of RNA variant scans (doi:10.1073/pnas.2313332121).

B1: TPR t1 (parent)
chain: GACCAAUCUGCCCUCAGAGCUCGAGAACAUCUUCGGAUGCAGAGGAGGCAGGCUUCGGUGGCGCGAUAGCGCCAACGUCCUCAACCUCCAAUGCAUCCCACCACAUGAUGAUGCCUGAAGAGCCUUGGUUUUUUG

Variants of B1 are the subject of this series. Briefly: polymerase ribozyme fitness, log enrichment relative to wild type (log ratio); higher = more active; in vitro selection for triplet polymerase activity. The gist of the method:
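Genotype fitness is the logarithm of its enrichment divided by wild-type enrichment, using inverse-variance-weighted averages of replicates. That logarithm is base 2. Enrichment was measured by Illumina sequencing of input and output libraries from one triplicate in vitro selection round, with frozen incubation at −7 °C, on PCR-built, transcribed mutant libraries of each subunit of a heterodimeric triplet polymerase ribozyme, retaining genotypes with ≥10 input reads and ≥1 read per output.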
As to A95C G113U G120C U125A, the “polymerase ribozyme fitness (log ratio)” value was -3.79. As for C88U C101U U106G C123A, the figure is -1.23; as for G93C C98U A121U, 1.01.

Consider C89A U92G U116G, for which the “polymerase ribozyme fitness (log ratio)” value is -5.83. As for A90G C99U U106C, the figure is -2.51; as for A90G C94U C97A C124A, -0.528. In the case of C89G C94A, the “polymerase ribozyme fitness (log ratio)” value is -2.52. As for C89G C94U, the figure is -0.951. Turning to C89G C104U, the “polymerase ribozyme fitness (log ratio)” value was -0.672. As for C89G U126G, the figure is -3.19. On to C94A U129G, for which the “polymerase ribozyme fitness (log ratio)” value is -1.07. For the variant C94G C124G, the “polymerase ribozyme fitness (log ratio)” value was found to be 1.09. In the case of A91G G113A, the “polymerase ribozyme fitness (log ratio)” value is -1.95. For the variant C89G C97A A100U C114A, the “polymerase ribozyme fitness (log ratio)” value was -7.31. As for A91C G127A, the “polymerase ribozyme fitness (log ratio)” value is -2.15.

In the case of A91C U96G, the “polymerase ribozyme fitness (log ratio)” value is -1.78. As for G93C G113C, the figure is -3.08; as for C94A C97U G120U, -1.04; as for U92A U106A C114A C123A, -5.83.

For the variant U92C C115U, the “polymerase ribozyme fitness (log ratio)” value is -2.72.

As for A95C C123G U132A, the “polymerase ribozyme fitness (log ratio)” value is -0.459.

Turning to G93C G128C, the “polymerase ribozyme fitness (log ratio)” value was -2.25.

Consider U96A C123A, for which the “polymerase ribozyme fitness (log ratio)” value is -1.45. As for U92A C98U, the figure is -4.66; as for A91U U106G, -4.85. As for A95C A119U, the figure is -1.28.

Turning to C89G G120A, the “polymerase ribozyme fitness (log ratio)” value is -1.58. As for U92G U106A, the figure is -1.97; as for C89U C101U, -1.33; as for C89A A100U, -2.67. As for G93A U129A, the figure is -1.36; as for A90U C101A, -3.3. As for U92G C94U, the figure is -4.52. As to C94A A118U, the “polymerase ribozyme fitness (log ratio)” value is -0.204.

In the case of A95U U106C, the “polymerase ribozyme fitness (log ratio)” value was -1.56. For the variant A95C G113U, the “polymerase ribozyme fitness (log ratio)” value is -3.39. Take U92G U125A: the “polymerase ribozyme fitness (log ratio)” value is -2.96.

As to C94G C114G G120C, the “polymerase ribozyme fitness (log ratio)” value was -4.95. As for A91U U116G G120C G128U, the figure is -4.65; as for G93C G120A, 1.58.

On to G93C U130C, for which the “polymerase ribozyme fitness (log ratio)” value was -0.714. In the case of G93A A105C, the “polymerase ribozyme fitness (log ratio)” value is -3.13.

Take C88G U112A: the “polymerase ribozyme fitness (log ratio)” value is 1.18. In the case of C88G U92A, the “polymerase ribozyme fitness (log ratio)” value was -4.09.

A90G C102A G117A: the “polymerase ribozyme fitness (log ratio)” value is -5.32. As for G93A U132C, the figure is -0.827; as for A90U C104A G113C, -3.66; as for U96A U129C, -1.7.

C89U A121U: the “polymerase ribozyme fitness (log ratio)” value was determined as 2.14.

Take G93A G128U: the “polymerase ribozyme fitness (log ratio)” value is -1.66. In the case of C89G G122A, the “polymerase ribozyme fitness (log ratio)” value was -3.38. As for A90U C97U U125A G127C U130G, the figure is -3.85; as for U92G A121C C123G, -0.349.

As for C88U C97A U109G, the “polymerase ribozyme fitness (log ratio)” value was -6.35. As for A95U U129C, the figure is -0.935; as for U96A U130C, -0.978; as for U92A C114A, -3.48. As for U96A G113A, the figure is -1.86; as for A90U G110A, -4.07; as for C89U A119U, -2.2. As for C94U C115U A121G, the figure is -2.09; as for A90C A121C, 0.757. As to C88U C114G, the “polymerase ribozyme fitness (log ratio)” value was -3.05. As for C88U C114U, the figure is -1.17; as for U92C A121C, 1.53; as for C94U C98U G120U G127U, -0.759. As for C89A C102G, the figure is -6.86.

For A90C C102U A111G, the “polymerase ribozyme fitness (log ratio)” value was -4.24. As for A91C A95U C101A, the figure is -4.41.

With A95U U132A, the “polymerase ribozyme fitness (log ratio)” value is -1.52.

Turning to C94G U106A G135U, the “polymerase ribozyme fitness (log ratio)” value was -1.54. On to U96A G120U, for which the “polymerase ribozyme fitness (log ratio)” value was -0.867.

For C94A C101G C123G, the “polymerase ribozyme fitness (log ratio)” value was -1.92. As for A95G G117A U133A, the figure is -1.23. As for A90C C114A C124A U125C, the figure is 0.0876; as for G93C C123A, -1.09; as for G93U G117C, -4.08. As for C88U C99U, the figure is -2.42.

On to C88G G127C, for which the “polymerase ribozyme fitness (log ratio)” value is -2.07. On to C94G A118U, for which the “polymerase ribozyme fitness (log ratio)” value was -0.748. As for A95G A121U, the figure is 2.11; as for U92G G120C, -1.74. As for C94A A100G C114U C124G, the figure is -5.66; as for C89U G107A, -5.32. As for G93A C114A A119U G122C, the figure is -3.4.

Take U92G G93C G117C A121U: the “polymerase ribozyme fitness (log ratio)” value was -5.65.

Regarding G93U G110A G120U, the “polymerase ribozyme fitness (log ratio)” value is -4.68. As for C94U U130G, the figure is -1.07; as for C89A C104A, -4.02. As for G93U G120U, the figure is -1.4. As for C89G C124U, the figure is 0.383.

Take A91G C94U U109A U112A: the “polymerase ribozyme fitness (log ratio)” value was -6.42. For the variant C88U A100G A108G U133G, the “polymerase ribozyme fitness (log ratio)” value is -5.29. As for C94G C114U, the figure is -3.17; as for A90G A103U A119G, -3.56. As for C89A G110C, the figure is -5.43; as for A90U G117C A118C, -3.48; as for A91C U96A A103U, -7.59. For the variant A90G C97U, the “polymerase ribozyme fitness (log ratio)” value was 0.255. On to U92C U116C, for which the “polymerase ribozyme fitness (log ratio)” value is -2.42. As for C89G C101A, the figure is -2.55.

Consider C89U G110U, for which the “polymerase ribozyme fitness (log ratio)” value was -2.22. As for C89U G110C, the figure is -3.36. Consider C94G U131A, for which the “polymerase ribozyme fitness (log ratio)” value was -1.9.

For C89A C101A, the “polymerase ribozyme fitness (log ratio)” value was -2.25. As for C88U A91U C115G, the figure is -3.9; as for G93C C101U C104A, -1.95. As for C89G, the figure is -1.19; as for C89A, -1.27; as for C89U, -0.195.

As to C89A C123U U129A, the “polymerase ribozyme fitness (log ratio)” value was -1.73. As for C89U U129G, the “polymerase ribozyme fitness (log ratio)” value was -1.72. Consider C88U U106A U130A, for which the “polymerase ribozyme fitness (log ratio)” value was -0.0999. As for U92C U112G G113U U130C, the figure is -5.75. As for G93U C97U, the figure is -0.996. U92A U133A: the “polymerase ribozyme fitness (log ratio)” value is -2.62. Turning to G93A C101U A118G, the “polymerase ribozyme fitness (log ratio)” value is -0.63. With C88U U92A, the “polymerase ribozyme fitness (log ratio)” value is -2.45. As for A90U A95U G113C G122U, the figure is -1.98.

Turning to C88G G117A G120C, the “polymerase ribozyme fitness (log ratio)” value is -4.17. A90C A118C: the “polymerase ribozyme fitness (log ratio)” value was -2.82. For A90C A118U, the “polymerase ribozyme fitness (log ratio)” value was -0.0445. As for C94U C102G, the figure is -6.09; as for U92G G120A A121C, -2.53.

Regarding A91U A121U, the “polymerase ribozyme fitness (log ratio)” value came to 0.873.

For the variant U96A C104A, the “polymerase ribozyme fitness (log ratio)” value was -3.3.

On to U96A C104U, for which the “polymerase ribozyme fitness (log ratio)” value is -0.116.

For G93U G110U, the “polymerase ribozyme fitness (log ratio)” value was -2.46. As for C88U C89G U92G, the figure is -2.44. As for C89A C124G, the figure is -0.00331. As for G93U C114A, the figure is -3.05; as for A90U A118U, -0.274. Regarding A95G U126C, the “polymerase ribozyme fitness (log ratio)” value was -0.892.

As to C94A A105C C114A A118U, the “polymerase ribozyme fitness (log ratio)” value was -1.05.

Regarding G93U A108G G120U, the “polymerase ribozyme fitness (log ratio)” value is -3.31. As for G93U G113C U125A, the “polymerase ribozyme fitness (log ratio)” value is -3.4.

In the case of A90C C124U, the “polymerase ribozyme fitness (log ratio)” value was determined as 0.931. With A91U G117A G120C G135C, the “polymerase ribozyme fitness (log ratio)” value is -3.63. As for C94A U112G, the figure is -1.48; as for C89G G93C, -3.36; as for C89A G122A U125G, -4.57. With U96C A105U, the “polymerase ribozyme fitness (log ratio)” value is -3.06. As for U92A A121U U125G, the figure is -1.83; as for G93A C115A U131A, -0.388; as for A91C U112A, -0.47. As for U96A G117U, the figure is -3.63. As for A90U C98G C114G G117C C123U U126C, the figure is -5.73; as for C94U C123A, 0.36. On to C89A G110U U132C, for which the “polymerase ribozyme fitness (log ratio)” value is -4.16. As for A90G C101G G113A G117C, the figure is -5.96; as for A90G C102A, -1.25. As for A90C U125A, the “polymerase ribozyme fitness (log ratio)” value is -1.2.

Regarding U92C G120U G127A, the “polymerase ribozyme fitness (log ratio)” value was -0.833. As for A95G C124U U130G, the figure is 0.565; as for A90U, -1.2; as for A90G, 0.347.

With A90C, the “polymerase ribozyme fitness (log ratio)” value is -1.08. As for U92C U112C, the “polymerase ribozyme fitness (log ratio)” value was found to be 0.33. As for C88U G110A, the figure is -1.46; as for C89U G120U U125A, -0.262; as for G93C G127C, -1.82. As for A90U G113A, the figure is -1.1. A90U G113C: the “polymerase ribozyme fitness (log ratio)” value is -2.53. With U92A C102G G113C, the “polymerase ribozyme fitness (log ratio)” value was -6.86. As for A95G A119G, the figure is 1.26; as for G93A G120A, 0.446. On to G93A G120U, for which the “polymerase ribozyme fitness (log ratio)” value is -0.0719.
